Publication PMC9482650, “Quantitative fragmentomics allow affinity mapping of interactomes” (Nature Communications, 2022)

Legend:
Assay in all cases: holdup assay
Set-up in all cases: key: below the threshold = too weak to quantify, mostly under pKd 3.1 to 4
GRIP1_2, Q9Y3R0 = target: T1, GRIP1_2, Q9Y3R0
T1 sequence (Q9Y3R0 145-248, limits assumed, looked up): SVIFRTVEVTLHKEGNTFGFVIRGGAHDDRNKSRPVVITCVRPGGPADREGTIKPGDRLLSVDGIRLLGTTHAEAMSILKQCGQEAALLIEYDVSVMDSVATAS

GOPC, Q9HD26 = target: GOPC, Q9HD26
NHERF3_1, Q5T2W1 = target: T2, NHERF3_1, Q5T2W1
T2 sequence (Q5T2W1 4-100, limits assumed, looked up): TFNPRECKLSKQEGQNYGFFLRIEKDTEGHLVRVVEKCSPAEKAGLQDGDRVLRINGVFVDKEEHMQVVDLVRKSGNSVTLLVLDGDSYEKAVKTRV

GORASP2, Q9H8Y8 = target: GORASP2, Q9H8Y8
LIN7A, O14910 = target: T3, LIN7A, O14910
T3 sequence (O14910 103-200, limits assumed, looked up): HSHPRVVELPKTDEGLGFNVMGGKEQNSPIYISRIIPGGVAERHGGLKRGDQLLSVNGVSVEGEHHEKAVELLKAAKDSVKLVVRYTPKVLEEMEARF

AHNAK1, Q09666 = target: AHNAK1, Q09666
AHNAK1, Q09666, sequence (Q09666 4-100): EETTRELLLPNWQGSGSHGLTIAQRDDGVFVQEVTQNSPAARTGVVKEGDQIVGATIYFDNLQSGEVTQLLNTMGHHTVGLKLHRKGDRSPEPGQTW

PCLO, Q9Y6V0 = target: T4, PCLO, Q9Y6V0
T4 sequence (Q9Y6V0 4491-4600, limits assumed, looked up): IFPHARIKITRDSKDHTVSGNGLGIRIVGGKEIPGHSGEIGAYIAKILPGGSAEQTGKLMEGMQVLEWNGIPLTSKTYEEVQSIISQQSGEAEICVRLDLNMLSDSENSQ

GIPC2, Q8TF65 = target: GIPC2, Q8TF65
GIPC2, Q8TF65, sequence (Q8TF65 112-203): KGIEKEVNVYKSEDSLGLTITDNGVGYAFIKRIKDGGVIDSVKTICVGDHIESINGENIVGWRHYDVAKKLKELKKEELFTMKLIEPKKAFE

DLG1_1, Q12959 = target: DLG1_1, Q12959
TJP1_2, Q07157 = target: TJP1_2, Q07157
TJP1_2, Q07157, sequence (Q07157 181-274): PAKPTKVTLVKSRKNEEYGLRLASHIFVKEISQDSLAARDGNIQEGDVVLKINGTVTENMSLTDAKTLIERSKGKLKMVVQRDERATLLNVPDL

DLG2_2, Q15700 = target: DLG2_2, Q15700
MAGI2_3, Q86UL8 = target: MAGI2_3, Q86UL8
MAGI2_3, Q86UL8, sequence (Q86UL8 600-682): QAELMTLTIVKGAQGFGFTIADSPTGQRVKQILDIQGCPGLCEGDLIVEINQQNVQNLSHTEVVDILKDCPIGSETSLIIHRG

DLG1_3, Q12959 = target: DLG1_3, Q12959
TJP1_3, Q07157 = target: TJP1_3, Q07157
TJP1_3, Q07157, sequence (Q07157 416-512): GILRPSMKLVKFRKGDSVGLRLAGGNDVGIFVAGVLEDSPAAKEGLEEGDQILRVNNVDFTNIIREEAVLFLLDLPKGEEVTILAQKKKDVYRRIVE

TIAM2, Q8IVF5 = target: T5, TIAM2, Q8IVF5
T5 sequence (Q8IVF5 885-986, limits assumed, looked up): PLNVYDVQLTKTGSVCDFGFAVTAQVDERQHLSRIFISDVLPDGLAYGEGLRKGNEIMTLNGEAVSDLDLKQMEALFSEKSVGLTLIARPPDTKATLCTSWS

Inadl_1, Q8NI35 = target: Inadl_1, Q8NI35
Inadl_1, Q8NI35, sequence (Q8NI35 113-229): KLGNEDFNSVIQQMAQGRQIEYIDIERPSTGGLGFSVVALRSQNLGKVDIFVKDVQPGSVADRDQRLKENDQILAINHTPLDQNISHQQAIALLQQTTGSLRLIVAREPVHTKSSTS

SCRIB_3, Q14160 = target: SCRIB_3, Q14160
SCRIB_3, Q14160, sequence (Q14160 999-1103): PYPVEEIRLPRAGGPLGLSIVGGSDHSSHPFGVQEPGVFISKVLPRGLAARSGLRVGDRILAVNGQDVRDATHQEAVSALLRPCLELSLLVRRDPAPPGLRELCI

DLG2_3, Q15700 = target: DLG2_3, Q15700
GRIP1_3, Q9Y3R0 = target: T6, GRIP1_3, Q9Y3R0
T6 sequence (Q9Y3R0 247-346, limits assumed, looked up): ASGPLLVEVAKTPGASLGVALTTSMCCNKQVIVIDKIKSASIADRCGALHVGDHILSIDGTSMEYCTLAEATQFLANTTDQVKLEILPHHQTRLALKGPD

GRIP2_7, Q9C0E4 = target: GRIP2_7, Q9C0E4
GRIP2_7, Q9C0E4, sequence (Q9C0E4 934-1023): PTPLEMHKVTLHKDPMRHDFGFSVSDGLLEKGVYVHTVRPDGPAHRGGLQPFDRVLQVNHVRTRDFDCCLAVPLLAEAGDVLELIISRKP

RADIL, Q96JH8 = target: T7, RADIL, Q96JH8
T7 sequence (Q96JH8 971-1071, limits assumed, looked up): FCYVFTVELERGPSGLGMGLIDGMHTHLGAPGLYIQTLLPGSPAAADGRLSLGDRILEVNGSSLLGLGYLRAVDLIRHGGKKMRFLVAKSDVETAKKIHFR

APBA1_1, Q02410 = target: T8, APBA1_1, Q02410
T8 sequence (Q02410 651-752, limits assumed, looked up): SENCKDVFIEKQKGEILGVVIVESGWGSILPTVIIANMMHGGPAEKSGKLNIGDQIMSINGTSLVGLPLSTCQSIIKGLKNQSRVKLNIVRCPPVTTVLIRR

NHERF4_4, Q86UT5 = target: NHERF4_4, Q86UT5
NHERF4_4, Q86UT5, sequence (Q86UT5 464-550): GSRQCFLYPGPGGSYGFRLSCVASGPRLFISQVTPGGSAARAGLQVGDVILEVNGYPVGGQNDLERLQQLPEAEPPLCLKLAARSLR

MAGI2_2, Q86UL8 = target: MAGI2_2, Q86UL8
MAGI2_2, Q86UL8, sequence (Q86UL8 410-522): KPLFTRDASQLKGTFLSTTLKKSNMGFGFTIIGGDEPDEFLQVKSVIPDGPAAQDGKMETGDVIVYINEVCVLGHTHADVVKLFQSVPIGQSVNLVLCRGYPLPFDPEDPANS

GRIP1_7, Q9Y3R0 = target: T9, GRIP1_7, Q9Y3R0
T9 sequence (Q9Y3R0 999-1096, limits assumed, looked up): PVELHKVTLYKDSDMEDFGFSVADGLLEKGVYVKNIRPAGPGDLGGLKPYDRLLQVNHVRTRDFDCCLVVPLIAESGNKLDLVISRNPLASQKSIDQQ

LDB3, O75112 = target: LDB3, O75112
LDB3, O75112, sequence (O75112 1-94): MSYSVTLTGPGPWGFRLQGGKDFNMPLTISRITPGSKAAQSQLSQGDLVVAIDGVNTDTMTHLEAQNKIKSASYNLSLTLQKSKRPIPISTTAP

MPDZ_10, O75970 = target: T10, MPDZ_10, O75970
T10 sequence (O75970 1624-1722, limits assumed, looked up): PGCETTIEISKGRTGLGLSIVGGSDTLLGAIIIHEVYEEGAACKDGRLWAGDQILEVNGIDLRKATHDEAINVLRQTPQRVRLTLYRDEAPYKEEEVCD

GRID2IP_1, A4D2P6 = target: GRID2IP_1, A4D2P6
GRID2IP_1, A4D2P6, sequence (A4D2P6 1-87): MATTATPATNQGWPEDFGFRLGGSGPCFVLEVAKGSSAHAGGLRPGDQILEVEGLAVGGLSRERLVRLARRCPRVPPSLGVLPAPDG

[1] = plain residues with an end cap or a label only (N-terminal biotin on a linker: (peg)3)
[2] = plain residues with an end cap or a label only (N-terminal biotin on a linker: ado-ado)

## RRRRSQSRESQC [HBV-HBc, P03193]
GRIP1_2, Q9Y3R0; [1]
  pKd: below the threshold
GOPC, Q9HD26; [1]
  pKd: below the threshold
NHERF3_1, Q5T2W1; [1]
  pKd: 4.44
GORASP2, Q9H8Y8; [1]
  pKd: below the threshold
LIN7A, O14910; [1]
  pKd: below the threshold
AHNAK1, Q09666; [1]
  pKd: below the threshold
PCLO, Q9Y6V0; [1]
  pKd: below the threshold
GIPC2, Q8TF65; [1]
  pKd: 4.39
DLG1_1, Q12959; [1]
  pKd: 4.23
TJP1_2, Q07157; [1]
  pKd: below the threshold
DLG2_2, Q15700; [1]
  pKd: 4.22
MAGI2_3, Q86UL8; [1]
  pKd: below the threshold
DLG1_3, Q12959; [1]
  pKd: 3.98
TJP1_3, Q07157; [1]
  pKd: below the threshold
TIAM2, Q8IVF5; [1]
  pKd: 3.86
Inadl_1, Q8NI35; [1]
  pKd: below the threshold
SCRIB_3, Q14160; [1]
  pKd: 4.03
DLG2_3, Q15700; [1]
  pKd: 4.18
GRIP1_3, Q9Y3R0; [1]
  pKd: below the threshold
GRIP2_7, Q9C0E4; [1]
  pKd: below the threshold
RADIL, Q96JH8; [1]
  pKd: below the threshold
APBA1_1, Q02410; [1]
  pKd: below the threshold
NHERF4_4, Q86UT5; [1]
  pKd: below the threshold
MAGI2_2, Q86UL8; [1]
  pKd: 4.4
GRIP1_7, Q9Y3R0; [1]
  pKd: below the threshold
LDB3, O75112; [1]
  pKd: below the threshold
MPDZ_10, O75970; [1]
  pKd: below the threshold
GRID2IP_1, A4D2P6; [1]
  pKd: below the threshold

## LKDDELKTKL [SLCO1A2, P46721]
GRIP1_2, Q9Y3R0; [2]
  pKd: below the threshold
GOPC, Q9HD26; [2]
  pKd: 3.94
NHERF3_1, Q5T2W1; [2]
  pKd: 4.87
GORASP2, Q9H8Y8; [2]
  pKd: below the threshold
LIN7A, O14910; [2]
  pKd: below the threshold
AHNAK1, Q09666; [2]
  pKd: below the threshold
PCLO, Q9Y6V0; [2]
  pKd: below the threshold
GIPC2, Q8TF65; [2]
  pKd: below the threshold
DLG1_1, Q12959; [2]
  pKd: below the threshold
TJP1_2, Q07157; [2]
  pKd: below the threshold
DLG2_2, Q15700; [2]
  pKd: below the threshold
MAGI2_3, Q86UL8; [2]
  pKd: below the threshold
DLG1_3, Q12959; [2]
  pKd: below the threshold
TJP1_3, Q07157; [2]
  pKd: below the threshold
TIAM2, Q8IVF5; [2]
  pKd: below the threshold
Inadl_1, Q8NI35; [2]
  pKd: below the threshold
SCRIB_3, Q14160; [2]
  pKd: 3.73
DLG2_3, Q15700; [2]
  pKd: below the threshold
GRIP1_3, Q9Y3R0; [2]
  pKd: below the threshold
GRIP2_7, Q9C0E4; [2]
  pKd: below the threshold
RADIL, Q96JH8; [2]
  pKd: below the threshold
APBA1_1, Q02410; [2]
  pKd: below the threshold
NHERF4_4, Q86UT5; [2]
  pKd: below the threshold
MAGI2_2, Q86UL8; [2]
  pKd: below the threshold
GRIP1_7, Q9Y3R0; [2]
  pKd: below the threshold
LDB3, O75112; [2]
  pKd: below the threshold
MPDZ_10, O75970; [2]
  pKd: below the threshold
GRID2IP_1, A4D2P6; [2]
  pKd: below the threshold

## AEASVACSLC [PTGIR, P43119]
GRIP1_2, Q9Y3R0; [2]
  pKd: below the threshold
GOPC, Q9HD26; [2]
  pKd: below the threshold
NHERF3_1, Q5T2W1; [2]
  pKd: 4.51
GORASP2, Q9H8Y8; [2]
  pKd: below the threshold
LIN7A, O14910; [2]
  pKd: below the threshold
AHNAK1, Q09666; [2]
  pKd: below the threshold
PCLO, Q9Y6V0; [2]
  pKd: below the threshold
GIPC2, Q8TF65; [2]
  pKd: 3.75
DLG1_1, Q12959; [2]
  pKd: below the threshold
TJP1_2, Q07157; [2]
  pKd: below the threshold
DLG2_2, Q15700; [2]
  pKd: below the threshold
MAGI2_3, Q86UL8; [2]
  pKd: below the threshold
DLG1_3, Q12959; [2]
  pKd: below the threshold
TJP1_3, Q07157; [2]
  pKd: below the threshold
TIAM2, Q8IVF5; [2]
  pKd: 3.75
Inadl_1, Q8NI35; [2]
  pKd: below the threshold
SCRIB_3, Q14160; [2]
  pKd: below the threshold
DLG2_3, Q15700; [2]
  pKd: 3.49
GRIP1_3, Q9Y3R0; [2]
  pKd: below the threshold
GRIP2_7, Q9C0E4; [2]
  pKd: below the threshold
RADIL, Q96JH8; [2]
  pKd: 3.94
APBA1_1, Q02410; [2]
  pKd: below the threshold
NHERF4_4, Q86UT5; [2]
  pKd: below the threshold
MAGI2_2, Q86UL8; [2]
  pKd: below the threshold
GRIP1_7, Q9Y3R0; [2]
  pKd: below the threshold
LDB3, O75112; [2]
  pKd: below the threshold
MPDZ_10, O75970; [2]
  pKd: 3.47
GRID2IP_1, A4D2P6; [2]
  pKd: below the threshold

## SFISKKEWYV [NECTIN1, Q15223]
GRIP1_2, Q9Y3R0; [2]
  pKd: below the threshold
GOPC, Q9HD26; [2]
  pKd: below the threshold
NHERF3_1, Q5T2W1; [2]
  pKd: 4.28
GORASP2, Q9H8Y8; [2]
  pKd: 4.67
LIN7A, O14910; [2]
  pKd: below the threshold
AHNAK1, Q09666; [2]
  pKd: below the threshold
PCLO, Q9Y6V0; [2]
  pKd: below the threshold
GIPC2, Q8TF65; [2]
  pKd: below the threshold
DLG1_1, Q12959; [2]
  pKd: 3.6
TJP1_2, Q07157; [2]
  pKd: below the threshold
DLG2_2, Q15700; [2]
  pKd: below the threshold
MAGI2_3, Q86UL8; [2]
  pKd: below the threshold
DLG1_3, Q12959; [2]
  pKd: below the threshold
TJP1_3, Q07157; [2]
  pKd: below the threshold
TIAM2, Q8IVF5; [2]
  pKd: 5.09
Inadl_1, Q8NI35; [2]
  pKd: 3.91
SCRIB_3, Q14160; [2]
  pKd: below the threshold
DLG2_3, Q15700; [2]
  pKd: 3.63
GRIP1_3, Q9Y3R0; [2]
  pKd: below the threshold
GRIP2_7, Q9C0E4; [2]
  pKd: 5.62
RADIL, Q96JH8; [2]
  pKd: 4.94
APBA1_1, Q02410; [2]
  pKd: below the threshold
NHERF4_4, Q86UT5; [2]
  pKd: below the threshold
MAGI2_2, Q86UL8; [2]
  pKd: 4.96
GRIP1_7, Q9Y3R0; [2]
  pKd: 5.06
LDB3, O75112; [2]
  pKd: below the threshold
MPDZ_10, O75970; [2]
  pKd: below the threshold
GRID2IP_1, A4D2P6; [2]
  pKd: below the threshold
